Experimental data reported in patent US20230136228A1 (LAMKAP BIO ALPHA, published 2023).

Experiments:
Experiment in all cases: flow cytometry, MFI on transfected PEAK cells divided by MFI on WT PEAK cells
human CEACAM4 = target: T1, human CEACAM4 (human, UniProt O75871 36-244)
T1 construct: whole, on cells
T1 sequence (looked up): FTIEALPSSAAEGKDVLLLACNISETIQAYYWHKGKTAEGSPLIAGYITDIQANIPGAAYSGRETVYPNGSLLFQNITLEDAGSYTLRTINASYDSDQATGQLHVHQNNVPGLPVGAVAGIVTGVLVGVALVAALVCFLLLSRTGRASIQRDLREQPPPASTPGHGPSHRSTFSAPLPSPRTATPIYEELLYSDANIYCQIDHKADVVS
Method: (§1) Similarly, vectors encoding the full-length version of cyno CEACAM 5 and 6 are also used to express these proteins at the surface of PEAK and/or CHO cells. Non-transfected PEAK and/or CHO cells are used as negative control. Cells are harvested, counted, checked for viability and resuspended at 3×10⁶ cells/ml in FACS buffer (PBS 2% BSA, 0.1% NaN₃). 100 μl of the cell suspension are distributed in V-bottom 96-well plates (3×10⁵ cells/well). The supernatant is removed by centrifugation 3 minutes at 4° C., 1300 rpm and the cells incubated for 15 minutes at 4° C. with increasing concentrations of the antibody according to the invention. The antibodies carrying the anti-CEACAM5 arms to test are diluted in FACS buffer and the concentration range is 30 pM-500 nM. Cells are washed twice with cold FACS buffer and re-incubated for further 15 minutes at 4° C. with a compatible anti-human IgG secondary antibody. Cells are washed twice with cold FACS buffer and resuspended in 300 μl FACS buffer with 1:1500-diluted TOPRO-3 (Invitrogen). Fluorescence is measured using a FACSCalibur™ (BD Biosciences) or a Cytoflex Platform (Beckman Coulter). Dose-response binding curves are fitted using GraphPad Prism8 software. In the same manner, CEACAM1, CEACAM6 and other CEACAMs can be characterized.
(§2) For the bispecific antibodies AB17L3-1/N, AB71L3-1/N, AB72L3-1/N, AB73L3-1/N the MFI measured for binding to CEACAM5 transfected cells was found between 29000 and 41000 (Table 2). In contrast MFI found by using PEAK cells transfected with CEACAM 1,3,4,6,8 were found below 1000 with the only exception of a strong signal for AB72L3-1/N on CEACAM8 transfected cells. When MFI values obtained on transfected cells expressing any given CEACAM are divided by the values obtained on WT PEAK cells, “factors to PEAK WT” can be calculated (Table 3). With the exception of AB72L3-1/N, the antibodies of the invention are all specific to CEACAM5, as the “factor to PEAK WT” values are all below 2.0.

human CEACAM6 = target: T2, human CEACAM6 (human, UniProt P40199 35-320)
T2 construct: whole, on cells; also called CD66c
T2 sequence (looked up): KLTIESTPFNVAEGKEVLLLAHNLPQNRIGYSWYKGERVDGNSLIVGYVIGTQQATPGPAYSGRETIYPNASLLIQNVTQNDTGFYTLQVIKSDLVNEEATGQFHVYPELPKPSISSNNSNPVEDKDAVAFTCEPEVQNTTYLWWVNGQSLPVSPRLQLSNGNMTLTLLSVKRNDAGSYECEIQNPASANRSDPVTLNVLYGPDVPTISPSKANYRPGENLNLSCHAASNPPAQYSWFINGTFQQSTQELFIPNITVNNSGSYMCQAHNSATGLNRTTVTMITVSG
Method: as §1, §2

human CEACAM1 = target: T3, human CEACAM1 (human, UniProt P13688 35-526)
T3 construct: whole, on cells
T3 sequence (looked up): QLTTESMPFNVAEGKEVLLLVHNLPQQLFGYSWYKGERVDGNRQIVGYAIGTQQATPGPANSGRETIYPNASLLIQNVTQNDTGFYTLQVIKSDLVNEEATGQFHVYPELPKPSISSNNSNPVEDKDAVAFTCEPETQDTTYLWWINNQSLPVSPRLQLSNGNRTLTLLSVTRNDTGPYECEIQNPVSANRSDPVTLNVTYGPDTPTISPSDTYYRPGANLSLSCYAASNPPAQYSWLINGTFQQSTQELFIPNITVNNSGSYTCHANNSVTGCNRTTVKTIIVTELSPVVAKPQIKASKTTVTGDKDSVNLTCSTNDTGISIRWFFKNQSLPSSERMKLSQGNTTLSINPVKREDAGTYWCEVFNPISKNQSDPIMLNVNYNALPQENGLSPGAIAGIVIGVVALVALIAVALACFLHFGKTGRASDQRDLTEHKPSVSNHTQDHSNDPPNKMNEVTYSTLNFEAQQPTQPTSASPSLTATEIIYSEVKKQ
Method: as §1, §2

[1] = target: T4, human CEACAM5 (carcinoembryonic antigen, CEA), cell surface (human, UniProt P06731 35-685)
T4 construct: whole, on cells; also called CD66e
T4 sequence (looked up): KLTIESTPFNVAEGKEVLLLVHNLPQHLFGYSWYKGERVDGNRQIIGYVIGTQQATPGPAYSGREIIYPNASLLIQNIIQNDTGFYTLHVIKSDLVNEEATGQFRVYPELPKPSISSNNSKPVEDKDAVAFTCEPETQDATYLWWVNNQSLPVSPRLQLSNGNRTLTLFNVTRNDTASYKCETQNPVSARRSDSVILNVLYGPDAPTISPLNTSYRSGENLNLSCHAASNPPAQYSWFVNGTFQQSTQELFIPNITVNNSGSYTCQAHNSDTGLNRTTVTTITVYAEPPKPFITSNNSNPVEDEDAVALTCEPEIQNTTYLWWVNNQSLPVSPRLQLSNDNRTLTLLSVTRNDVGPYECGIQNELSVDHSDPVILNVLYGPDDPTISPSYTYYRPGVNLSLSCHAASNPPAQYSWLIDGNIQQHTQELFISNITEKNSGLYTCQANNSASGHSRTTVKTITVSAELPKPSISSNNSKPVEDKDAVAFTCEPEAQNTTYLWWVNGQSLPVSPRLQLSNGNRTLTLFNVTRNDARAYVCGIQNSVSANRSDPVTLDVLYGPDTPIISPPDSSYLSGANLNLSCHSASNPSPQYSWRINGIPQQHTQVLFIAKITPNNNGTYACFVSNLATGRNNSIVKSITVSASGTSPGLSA
Method: as §1, §2

B1: AB72L3-1/N (bispecific antibody, human IgG1, kappa, lambda, L234A L235A)
heavy: EVQLVESGGGLVQPGGSLKLSCAASGFTFNTYAMNWVRQAPGKGLEWVGRIRSKYNNYATYYADSVKDRFTISRDDSKNTAYLQMNSLKTEDTAVYYCVRHGNFGNSYVSWFAYWGQGTLVTVSSASTKGPSVFPLAPSSKSTSGGTAALGCLVKDYFPEPVTVSWNSGALTSGVHTFPAVLQSSGLYSLSSVVTVPSSSLGTQTYICNVNHKPSNTKVDKRVEPKSCDKTHTCPPCPAPEAAGGPSVFLFPPKPKDTLMISRTPEVTCVVVDVSHEDPEVKFNWYVDGVEVHNAKTKPREEQYNSTYRVVSVLTVLHQDWLNGKEYKCKVSNKALAAPIEKTISKAKGQPREPQVYTLPPSREEMTKNQVSLTCLVKGFYPSDIAVEWESNGQPENNYKTTPPVLDSDGSFFLYSKLTVDKSRWQQGNVFSCSVMHEALHNHYTQKSLSLSPG
light 1: EIVLTQSPATLSLSPGERATLSCRASQSVNSNLNWYQQKPGQAPRLLIYHSTNRPRGIPARFSGSGSGTDFTLTISSLEPEDFAVYYCQQFDYFKEYNTFGQGTKVEIKRTVAAPSVFIFPPSDEQLKSGTASVVCLLNNFYPREAKVQWKVDNALQSGNSQESVTEQDSKDSTYSLSSTLTLSKADYEKHKVYACEVTHQGLSSPVTKSFNRGEC
light 2: QTVVTQEPSLTVSPGGTVTLTCRSSTGAVTTSNYANWFQQKPGQAPRGLIGGTNKRAPGTPARFSGSLLGGKAALTLSGAQPEDEAEYYCALWYKQRWVFGGGTKLTVLGQPKAAPSVTLFPPSSEELQANKATLVCLISDFYPGAVTVAWKADSSPVKAGVETTTPSKQSNNKYAASSYLSLTPEQWKSHRSYSCQVTHEGSTVEKTVAPTECS
notes: Kappa-lambda body, lead optimization wave 2
Factor to PEAK WT (human CEACAM4): 0.8 fold | Factor to PEAK WT (human CEACAM6): 1.2 fold | Factor to PEAK WT (human CEACAM1): 1.4 fold | Factor to PEAK WT [1]: 85.3 fold

B2: AB73L3-1/N (bispecific antibody, human IgG1, kappa, lambda, L234A L235A)
heavy: EVQLVESGGGLVQPGGSLKLSCAASGFTFNTYAMNWVRQAPGKGLEWVGRIRSKYNNYATYYADSVKDRFTISRDDSKNTAYLQMNSLKTEDTAVYYCVRHGNFGNSYVSWFAYWGQGTLVTVSSASTKGPSVFPLAPSSKSTSGGTAALGCLVKDYFPEPVTVSWNSGALTSGVHTFPAVLQSSGLYSLSSVVTVPSSSLGTQTYICNVNHKPSNTKVDKRVEPKSCDKTHTCPPCPAPEAAGGPSVFLFPPKPKDTLMISRTPEVTCVVVDVSHEDPEVKFNWYVDGVEVHNAKTKPREEQYNSTYRVVSVLTVLHQDWLNGKEYKCKVSNKALAAPIEKTISKAKGQPREPQVYTLPPSREEMTKNQVSLTCLVKGFYPSDIAVEWESNGQPENNYKTTPPVLDSDGSFFLYSKLTVDKSRWQQGNVFSCSVMHEALHNHYTQKSLSLSPG
light 1: EIVLTQSPATLSLSPGERATLSCRASQSVNSNLNWYQQKPGQAPRLLIYHSNNRPHGIPARFSGSGSGTDFTLTISSLEPEDFAVYYCQQFDYFREYNTFGQGTKVEIKRTVAAPSVFIFPPSDEQLKSGTASVVCLLNNFYPREAKVQWKVDNALQSGNSQESVTEQDSKDSTYSLSSTLTLSKADYEKHKVYACEVTHQGLSSPVTKSFNRGEC
light 2: QTVVTQEPSLTVSPGGTVTLTCRSSTGAVTTSNYANWFQQKPGQAPRGLIGGTNKRAPGTPARFSGSLLGGKAALTLSGAQPEDEAEYYCALWYKQRWVFGGGTKLTVLGQPKAAPSVTLFPPSSEELQANKATLVCLISDFYPGAVTVAWKADSSPVKAGVETTTPSKQSNNKYAASSYLSLTPEQWKSHRSYSCQVTHEGSTVEKTVAPTECS
notes: as for B1
Factor to PEAK WT (human CEACAM4): 0.7 fold | Factor to PEAK WT (human CEACAM6): 1 fold | Factor to PEAK WT (human CEACAM1): 1.1 fold | Factor to PEAK WT [1]: 70.8 fold
